This assay has as its target T1, receptor of advanced glycation end products (RAGE) on NK cells (human, UniProt Q15109 23-404).
T1 construct: whole, on cells; Endogenous receptor on primary NK cells from healthy donors; also called Receptor for Advance Glycation End product
Nature of the assay: flow cytometry of RAGE on NK cells treated with rhCHI3L1, and phospho-JNK flow cytometry (binding inferred). As for the experimental part: (a) Dot plots for RAGE expression on NK cells (left) and MFI of RAGE expression on NK cells treated with rhCHI3L1. (b) MFI of lytic granules staining in NKs treated with CHI3L1 (50 ng/ml) or anti-RAGE Blocking antibody (10 ug/ml) for 1 h. (c) effect of RAGE blockade on NK cells cytotoxicity (d) Basal P-JNK levels in NK cells treated with CHI3L1 (e) P-JNK levels in NK cells after 10 min of stimulation by RAGE ligand S100A8/A9 (10 ug/ml) alone or with rhCHI3L1 (100 ng/ml) and (f) P-JNK levels in time during ADCC of NK cells incubated with SKBR3 targets at (5:1) E:T ratio. All plots are representative of at least two
Single-cell suspensions, of blood or from cell culture, were obtained and incubated with Fc receptor-blocking antibody before being stained on ice. Dead cells were excluded by live/dead staining using fixable live/dead stain dyes (Thermofisher scientific). Primary NK cells [from healthy donors, after informed consent] were gated as singlets, CD14neg, FSC−. SSC appropriate for lymphocytes, CD3neg, CD16/CD56 poscells. Intracellular staining was performed using a fixation and permeabilization buffer (BD Bioscience). […] Stained cells were analyzed on FACSCanto II cytometer (BD Biosciences). […] Flow cytometry data were analyzed with FlowJo v10 software (Tree Star).
On the technique in general: A flow cytometer gives signals particle by particle.

T1 sequence (Q15109 23-404): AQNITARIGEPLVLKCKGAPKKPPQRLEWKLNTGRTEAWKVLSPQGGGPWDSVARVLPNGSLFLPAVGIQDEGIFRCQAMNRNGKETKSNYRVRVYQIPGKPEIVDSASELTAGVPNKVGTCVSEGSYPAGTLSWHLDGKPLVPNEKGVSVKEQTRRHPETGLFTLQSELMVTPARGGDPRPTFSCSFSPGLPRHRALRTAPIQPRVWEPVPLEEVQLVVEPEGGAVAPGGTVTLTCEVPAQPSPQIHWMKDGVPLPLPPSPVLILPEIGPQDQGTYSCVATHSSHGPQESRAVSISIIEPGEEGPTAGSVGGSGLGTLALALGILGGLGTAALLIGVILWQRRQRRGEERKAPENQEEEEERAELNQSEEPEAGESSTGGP

B1: recombinant human Chitinase 3-like 1 (rhCHI3L1) (ligand)
chain: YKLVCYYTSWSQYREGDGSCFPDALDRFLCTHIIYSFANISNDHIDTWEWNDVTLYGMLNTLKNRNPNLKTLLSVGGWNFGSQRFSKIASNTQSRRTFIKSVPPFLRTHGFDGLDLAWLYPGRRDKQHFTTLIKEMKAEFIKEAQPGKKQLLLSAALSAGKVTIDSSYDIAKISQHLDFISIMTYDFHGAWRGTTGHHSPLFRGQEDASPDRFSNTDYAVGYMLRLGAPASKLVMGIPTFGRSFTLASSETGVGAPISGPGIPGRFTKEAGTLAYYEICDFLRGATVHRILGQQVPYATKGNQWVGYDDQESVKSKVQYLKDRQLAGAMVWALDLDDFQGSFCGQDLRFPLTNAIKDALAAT
notes: Recombinant protein; also called YKL-40; CHI311
In the case of B1, the binding result is listed as “binds”.
